Laboratory results from patent US20200368361A1.

Columns and labels:
[1] = target: endogenously expressed human MSR1 on PMA-treated THP-1 cells (human) (UniProt P21757); test: ECL cell binding, PMA-treated THP-1
[2] = target: human MSR1 endogenously expressed on PMA-differentiated THP-1 cells (human) (UniProt P21757); test: imaging of PMA-differentiated THP-1 cells, 10 ug/mL antibody, Alexa 488 secondary
Sequence of human MSR1 endogenously expressed on PMA-differentiated THP-1 cells (human) (P21757 whole entry): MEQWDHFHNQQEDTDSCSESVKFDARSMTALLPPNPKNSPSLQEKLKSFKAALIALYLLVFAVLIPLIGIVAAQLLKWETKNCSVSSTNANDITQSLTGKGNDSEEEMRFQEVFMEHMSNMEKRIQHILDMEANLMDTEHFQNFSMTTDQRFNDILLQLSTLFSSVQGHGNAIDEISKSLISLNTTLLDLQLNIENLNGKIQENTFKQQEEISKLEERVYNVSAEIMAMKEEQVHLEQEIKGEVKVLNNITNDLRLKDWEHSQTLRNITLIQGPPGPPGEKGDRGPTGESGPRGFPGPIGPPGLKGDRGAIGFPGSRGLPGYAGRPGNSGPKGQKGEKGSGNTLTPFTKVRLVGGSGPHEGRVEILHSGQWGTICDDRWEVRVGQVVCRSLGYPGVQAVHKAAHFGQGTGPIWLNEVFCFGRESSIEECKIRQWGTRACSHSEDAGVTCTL

Sequence of endogenously expressed human MSR1 on PMA-treated THP-1 cells (human) (P21757 whole entry): as above

B1: H1H27739P-N297Q (antibody, human IgG1, V domains shown)
VH: EVQLVESGGGLVQPGGSLRLSCTASGFTFSSYAMSWVRQAPGKGLEWVSAISGTGSSTYFTDSVKGRFAISRDNSKNTLYLQMNSLRAEDTAVYYCAKDGEWLSTVTLFDYWGQGTLVTVSS
VL: EIVMTQSPATLSVSPGERATLSCRASQSVSSNLAWYQQKPGQAPRLLIYGASTRATGIPARFSGSGSGTDFTLTISSLQSEDFALYYCQQYFIWPPHPTFGPGTKVDIKR
- binding signal ratio to isotype control (11 nM) [1]: 9 fold
- Total Binding at 4° C. [2]: 3.7e+06 RFU
- Total Binding at 37° C. [2]: 5.61e+06 RFU

B2: H1H27729P-N297Q (antibody, human IgG1, V domains shown)
VH: QVQLVESGGGLVKPGGSLRLSCAASGFIFSDYYMSWIRQAPGKGLEWVSYISSSGTTIYGDSVKGRFTMSRDNAKNSLYLQMNSLRAEDTAVYYCARNYALFDYWGQGTLVTVSS
VL: DIQMTQSPSSLSASVGDRVTITCQASQDISKYLNWYQQKPGKAPKLLIYYTSNLETGVPSRFSGSGSGTDFTFTISSLQPEDIATYYCHQSDYLPFTFGPGTKVDIKR
- binding signal ratio to isotype control (11 nM) [1]: 8 fold
- Total Binding at 4° C. [2]: 1.93e+06 RFU
- Total Binding at 37° C. [2]: 6.61e+06 RFU

B3: H1H27734P-N297Q (antibody, human IgG1, V domains shown)
VH: EVQLVESRGGLVQPGGSLRLSCAASGFTFSSYAMSWVRQAPGKGLEWVSAISGSGGSTFYADSVKGRFTISRDNSKNTVYLQMNSLRAEDTAVYYCAKALVLRFLEWLGDYWGQGTLVTVSS
VL: DIQMTQSPSTLSASVGDRVTITCRASQSISSWLAWFQQKPGKAPKLLIYKASSLESGVPSRFSGSGSGTEFTLTISSLQPDDFATYYCQQYKSYWTFGQGTKVEIKR
- binding signal ratio to isotype control (11 nM) [1]: 21 fold
- Total Binding at 4° C. [2]: 483000 RFU
- Total Binding at 37° C. [2]: 1.15e+06 RFU

B4: H1H21234N-N297Q (antibody, human IgG1, V domains shown)
VH: QVQLQESGPGLVKPSETLSLTCTVTGGSISRNYWSWIRQPPGKGLEWIGYIYYSGSIDYNPSLKSRVTISVDTSKNQFSLKLSSMTAADTAVYYCARDRWNWKYGMDVWGQGTTVIVSS
VL: EIVLTQSPGTLSLSPGERATLSCRASQTVRNNYLAWYHQKPGQAPRLLIYGASSRATGIPDRFSGSGSGTDFTLTISRLEPEDFTVYYCHQYGNSPWTFGQGTKMEIKR
- binding signal ratio to isotype control (11 nM) [1]: 25 fold
- Total Binding at 4° C. [2]: 1.95e+06 RFU
- Total Binding at 37° C. [2]: 5.45e+06 RFU

B5: H2aM25695N (antibody, mouse IgG2a, V domains shown)
VH: QVQLQESGPGLVKPSETLSLTCTVTGGSISRNYWSWIRQPPGKGLEWIGYIYYSGSINYNPSLKSRVTISVDMSKNQFSLKLNSVTAADTAVYYCARDRWNWKYGMDVWGQGTTVIVSS
VL: EIVLTQSPGTLSLSPGERATLSCRASQTVRNSYLAWYHQKPGQAPRLLIYGASSRATGIPDRFSGSGSGTDFTLTISRLEPEDFAVYYCQQYGSSYWTFGQGTKMEIKR
- binding signal ratio to isotype control (11 nM) [1]: 8 fold

B6: H1H21234N (antibody, human IgG1, V domains shown)
VH: QVQLQESGPGLVKPSETLSLTCTVTGGSISRNYWSWIRQPPGKGLEWIGYIYYSGSIDYNPSLKSRVTISVDTSKNQFSLKLSSMTAADTAVYYCARDRWNWKYGMDVWGQGTTVIVSS
VL: EIVLTQSPGTLSLSPGERATLSCRASQTVRNNYLAWYHQKPGQAPRLLIYGASSRATGIPDRFSGSGSGTDFTLTISRLEPEDFTVYYCHQYGNSPWTFGQGTKMEIKR
- binding signal ratio to isotype control (11 nM) [1]: 18 fold

B7: H2aM21229N (antibody, mouse IgG2a, V domains shown)
VH: EVQLVESGGGLVKPGGSLRLSCAASGFTFSRYSMNWVRQAPGKGLEWVSSISSSSSYIYYGDTVKGRFTISRDNAKKSLYLQMNSLRAEDTAVYYCVRDRGQLVLYFDYWGQGTLVTVSS
VL: DIQMTQSPASLSTSIRDRVTITCRASLSISSFLNWFQQRPGKAPKLLIYVASNLQSGVPSRFSDSGSGTDFTLTISSLQPEDFATYYCQQNYSTPPITFGQGTRLEIK
- binding signal ratio to isotype control (11 nM) [1]: 56 fold

B8: H1H27747P-N297Q (antibody, human IgG1, V domains shown)
VH: QVQLVESGGAVVQPGRSLRLSCAASGFTFSYYGMHWVRQAPGKGLEWVAVISYDGSKKYYADSVKGRFTISRDNSKNTLYLQMNSLRAEDTAVYYCAKDLTVDFYYGMDVWGQGTTVTVSS
VL: DIQMTQSPSSVSASVGDRVTITCRASQGISSWLAWYQQKPGKAPKLLIYATSSLQSGAPSRFSGSGSGTDFTLTISSLQPEDFATYFCQQANSFPYTFGQGTKLEIKR
- binding signal ratio to isotype control (11 nM) [1]: 13 fold
- Total Binding at 4° C. [2]: 2.52e+06 RFU
- Total Binding at 37° C. [2]: 5.92e+06 RFU

B9: H1H27754P-N297Q (antibody, human IgG1, V domains shown)
VH: EVQLVESGGGLVQPGGSLRLSCAASGFTFRTYAMTWVRQAPGKGLDWVSAITGDGGNTYYADSVKGRFTISRDNSKNTLYLQMNSLRAEDTAIYYCAKDQRFSFALYYFDYWGQGTLVTVSS
VL: DIQMTQSPSSVSASVGDRVTITCRASQGISSWLAWYQQKPGNAPKLLIYAAFSLQSGVPSRFSGSGSGTDFTLTISSLQPEDFATYYCQQANNFPWTFGQGTKVEIKR
- binding signal ratio to isotype control (11 nM) [1]: 66 fold
- Total Binding at 4° C. [2]: 3.08e+06 RFU
- Total Binding at 37° C. [2]: 7.16e+06 RFU

B10: H1H21227N-N297Q (antibody, human IgG1, V domains shown)
VH: QVQLVQSGAEVKKPGASVKVSCKVSGYTLTELSIHWVRQVPGKGLEWMGGFDPEEGETIFAQEFRDRVTLTEDTSPDTAYMELSSLKSEDAAVYYCTTPRYCNNGICYDYWGQGTLVTVSS
VL: DIQMTQSPSSLSASVGDRVTITCRASQSISNYLNWYQQKPGKAPKLLIYTASSLQSGVPSRFSGSGSGTDFTLTISSLQTEDFATYYCQQSYSNFPITFGQGTRLEIKR
- binding signal ratio to isotype control (11 nM) [1]: 5 fold
- Total Binding at 4° C. [2]: 1.8e+06 RFU
- Total Binding at 37° C. [2]: 4.11e+06 RFU

B11: H1H21227N (antibody, human IgG1, V domains shown)
VH: QVQLVQSGAEVKKPGASVKVSCKVSGYTLTELSIHWVRQVPGKGLEWMGGFDPEEGETIFAQEFRDRVTLTEDTSPDTAYMELSSLKSEDAAVYYCTTPRYCNNGICYDYWGQGTLVTVSS
VL: DIQMTQSPSSLSASVGDRVTITCRASQSISNYLNWYQQKPGKAPKLLIYTASSLQSGVPSRFSGSGSGTDFTLTISSLQTEDFATYYCQQSYSNFPITFGQGTRLEIKR
- binding signal ratio to isotype control (11 nM) [1]: 7 fold

B12: H1H21227N-N297D (antibody, human IgG1, V domains shown)
VH: QVQLVQSGAEVKKPGASVKVSCKVSGYTLTELSIHWVRQVPGKGLEWMGGFDPEEGETIFAQEFRDRVTLTEDTSPDTAYMELSSLKSEDAAVYYCTTPRYCNNGICYDYWGQGTLVTVSS
VL: DIQMTQSPSSLSASVGDRVTITCRASQSISNYLNWYQQKPGKAPKLLIYTASSLQSGVPSRFSGSGSGTDFTLTISSLQTEDFATYYCQQSYSNFPITFGQGTRLEIKR
- binding signal ratio to isotype control (11 nM) [1]: 6 fold

B13: H1H21231N (antibody, human IgG1, V domains shown)
VH: EVQLVESGGGLVQPGGSLRLSCAASGFTFSDHYMDWVRQAPGKGLEWVGRTRNKANSHTTEYTASVTGRFTISRDDSRNSLYLQMNSLKTEDTAVYYCVRAGIIGTLFDYWGQGTLVTVSS
VL: DIQMTQFPSSLSASVGDRVTITCRASQSISSFLNWFQQKPGKAPKFLIYAASSLQSGVPSRFSGSGSGTDFTLTISSLQPEDFATYYCQQSYSSPPITFGQGTRLEIKR
- binding signal ratio to isotype control (11 nM) [1]: 42 fold

B14: H1H21231N-N297Q (antibody, human IgG1, V domains shown)
VH: EVQLVESGGGLVQPGGSLRLSCAASGFTFSDHYMDWVRQAPGKGLEWVGRTRNKANSHTTEYTASVTGRFTISRDDSRNSLYLQMNSLKTEDTAVYYCVRAGIIGTLFDYWGQGTLVTVSS
VL: DIQMTQFPSSLSASVGDRVTITCRASQSISSFLNWFQQKPGKAPKFLIYAASSLQSGVPSRFSGSGSGTDFTLTISSLQPEDFATYYCQQSYSSPPITFGQGTRLEIKR
- binding signal ratio to isotype control (11 nM) [1]: 45 fold
